These binders were tested against HLA-A*24 (human) (assay: UV peptide exchange, anti-b2m ELISA).
Work on TYELRYFQI [SEQ ID No 204 peptide …] yielded a peptide exchange yield of over 75%. Binder AYVVFVSTL [SEQ ID No 207 peptide …] has a peptide exchange yield of 20 to 49%. NYYEVHKELF [SEQ ID No 270 peptide …] showed a peptide exchange yield of 50 to 75%. Work on PYRLIFEKF [SEQ ID No 281 peptide …] yielded a peptide exchange yield of 20 to 49%. VYQGHTALL [SEQ ID No 277 peptide …] showed a peptide exchange yield of over 75%. In the case of YYGPSLFLL [SEQ ID No 200 peptide …], the peptide exchange yield is reported as 50 to 75%. TFSVSSHLF [SEQ ID No 222 peptide …] was tested, and the peptide exchange yield was 50 to 75%. TYKDEGNDYF [SEQ ID No 209 peptide …] showed a peptide exchange yield of 50 to 75%. YYKSTSSAF [SEQ ID No 218 peptide …] showed a peptide exchange yield of 50 to 75%. With HYPPVQVLF [SEQ ID No 285 peptide …] the peptide exchange yield was 50 to 75%. RYAEEVGIF [SEQ ID No 199 peptide …] gave a peptide exchange yield of 50 to 75%. VYWDSAGAAHF [SEQ ID No 202 peptide …] showed a peptide exchange yield of over 75%. For QYLGQIQHI [SEQ ID No 268 peptide …], the peptide exchange yield was 50 to 75%. With YFIDSTNLKTHF [SEQ ID No 269 peptide …] the peptide exchange yield was 50 to 75%. In the case of LYITEPKTI [SEQ ID No 287 peptide …], the peptide exchange yield is reported as 50 to 75%. In the case of IYATEAHVF [SEQ ID No 201 peptide …], the peptide exchange yield is reported as 50 to 75%.

From patent US20170189505A1
